Measurements published in patent publication US20200031927A1 (Memorial Sloan Kettering, published 2020).

B1: ET160-73 (antibody, human IgG1, V domains shown)
VH: QVQLVQSGAEVKKPGESLKISCKGSGYSFTSYWIGWVRQMPGKGLEWMGIIYPGDSDTRYSPSFQGQVTISADKSISTAYLQWSSLKASDTAMYYCARGREQLWLDGMDVWGQGTTVTVSS
VL: DVVMTQSPLSLPVTLGQPASISCRSTQSLVHSDGNTYLNWFQQRPGQSPRRLIYGVSNRDFGVPDRFSASGSGTDFTLKINRVEAEDVGVYYCMQGTHWPLTFGQGTKVEIKR
notes: Tested as human IgG1 (hIgG1), kappa light chain
B2: ET160-42 (antibody, human IgG1, V domains shown)
VH: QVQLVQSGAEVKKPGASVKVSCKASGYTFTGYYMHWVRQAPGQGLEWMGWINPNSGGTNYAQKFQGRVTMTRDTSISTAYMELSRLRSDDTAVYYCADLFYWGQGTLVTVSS
VL: QSALTQPASVSGSPGQSITISCTGTSSDVGGYNYVSWYQQHPGKAPKLMIYDVSNRPSGVSNRFSGSKSGNTASLTISGLQAEDEADYYCSSYTSSNTLVFGTGTKVTVLG
notes: Tested as human IgG1 (hIgG1), lambda light chain; Clone from a human scFv phage display library
B3: ET160-74 (antibody, human IgG1, V domains shown)
VH: QVQLVQSGAEVKKPGSSVKVSCKASGGTFSSYAISWVRQAPGQGLEWMGWMNPNSGNTGYAQKFQGRVTMTRNTSISTAYMELSSLRSEDTAVYYCARYSFHLDGWGQGTLVTVSS
VL: QSVLTQPPSVSAAPGQKVTISCSGSSSNVGNNYVSWYQQVPGTAPKLLIYDNNRRPSGIPDRFSGSKSGTSATLGITGLQTGDEADYYCGTWDNSLRVELFGGGTKVTVLG
notes: Tested as human IgG1 (hIgG1), lambda light chain
B4: ET160-72 (antibody, human IgG1, V domains shown)
VH: QVQLVQSGGGVVRSGGSLRLTCAASGFTFGDYGMSWVRQAPGKGLEWVSGINWNGGGTGYADSVKGRFTISRDNAKDSLYLQMNSLRAEDTALYYCARVWGCGSTTCYEGADDAFDIWGQGTMVTVSS
VL: LPVLTQPPSISGAPRQRVTISCSGARSNIGNNAVNWYQQVPGEAPKLLIFYDDQQPSGISGRFSGSKSGTSASLAISGLQSEDEADYYCAAWDDSLNGWVFGGGTKLTVLG
notes: as for B3
B5: ET160-61 (antibody, human IgG1, V domains shown)
VH: QVQLVESGGGLVQPGRSLRLSCAASGFTFDDYAMHWVRQAPGKGLEWVSGISWNSGSIGYADSVKGRFTISRDNAKNSLYLQMNSLRAEDTAVYYCASSLRYFEWPIDYWGQGTLVTVSS
VL: NFMLTQPLSVSESPGKTVTISCTANGGSLASKYVQWFQQRPGSSPTTVIYDDNLRPSGVPDRFSGSIDTSSNSAALTISGLKTEDEADYYCQSYDNSSVVFGGGTKLTVLG
notes: as for B3
B6: ET160-77 (antibody, human IgG1, V domains shown)
VH: EVQLVETGGGLVKPGGSLRLSCAASGFTFSDYYMSWIRQAPGKGLEWVSYISSSSSYTNYADSVKGRFTISRDNAKNSLYLQMNSLRAEDTAVYYCAREGIAAADAFDIWGQGTMVTVSS
VL: SYELTQPPSVSVAPGQAATITCAGDNIESKSVNWYQQKPGQAPVLVVYDDTVRPSGIPERFSGSNSGNPATLTISRSEAGDEADYYCQVWDNRRDHVVFGGGTKVTVLG
notes: as for B3

Each binder was assayed against T1, soluble KIR3DL1*002-Fc (human, UniProt P43629 22-338) (assay: SPR (BIACORE T-100)).
T1 construct: also called KIR3DL1 allele 002; Allele 002; not shown: Fc domain
T1 sequence (P43629 other isoform, or with tags, fused parts or gaps): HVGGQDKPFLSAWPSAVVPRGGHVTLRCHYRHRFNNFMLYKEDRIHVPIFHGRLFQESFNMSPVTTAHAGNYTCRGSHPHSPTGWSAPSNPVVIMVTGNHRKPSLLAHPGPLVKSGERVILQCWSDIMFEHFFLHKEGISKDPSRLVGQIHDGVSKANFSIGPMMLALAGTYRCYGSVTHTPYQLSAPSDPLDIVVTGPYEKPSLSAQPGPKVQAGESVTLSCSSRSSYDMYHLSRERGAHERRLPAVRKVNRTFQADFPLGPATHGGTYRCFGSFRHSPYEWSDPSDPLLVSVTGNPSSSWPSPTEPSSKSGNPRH
Work on B1 yielded a Kd of 124 nM. In the case of B2, the Kd is reported as 93.5 nM. In the case of B3, the Kd is reported as 108 nM. For B4, the Kd was 316 nM. For B5, the Kd was 27.7 nM. Work on B6 yielded a Kd of 197 nM.

These binders were tested against T2, soluble KIR3DL1*033-Fc (human, UniProt P43629 22-340) (assay: SPR (BIACORE T-100)).
T2 construct: also called KIR3DL1 allele 033; Allele 033; not shown: Fc domain
T2 sequence (P43629 other isoform, or with tags, fused parts or gaps): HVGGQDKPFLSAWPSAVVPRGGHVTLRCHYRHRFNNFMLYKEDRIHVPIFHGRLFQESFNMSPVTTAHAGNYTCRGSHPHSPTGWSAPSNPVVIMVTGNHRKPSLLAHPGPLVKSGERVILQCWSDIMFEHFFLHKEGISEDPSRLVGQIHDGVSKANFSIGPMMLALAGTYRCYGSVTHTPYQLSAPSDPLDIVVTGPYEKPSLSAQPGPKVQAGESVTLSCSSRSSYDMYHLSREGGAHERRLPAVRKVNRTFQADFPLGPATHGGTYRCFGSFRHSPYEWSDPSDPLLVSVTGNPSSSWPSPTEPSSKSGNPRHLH
B1 showed a Kd of 55.6 nM. Binder B2 has a Kd of 75.2 nM. Work on B3 yielded a Kd of 62.2 nM. B4 gave a Kd of 138 nM. B5 gave a Kd of 10.8 nM. For B6, the Kd was 48.3 nM.

What follows are binders tested against T3, soluble KIR3DL1*001-Fc (human, UniProt P43629 22-340) (assay: SPR (BIACORE T-100)).
T3 construct: also called KIR3DL1 allele 001; KIR3DL1 allele-001 antigen; not shown: Fc domain
For B1, the Kd was 136 nM. With B2 the Kd was 89.5 nM. Binder B3 has a Kd of 11.9 nM. B4 showed a Kd of 182 nM. B5 gave a Kd of 45.9 nM. Work on B6 yielded a Kd of 53.1 nM.

What follows are binders tested against T1, soluble KIR3DL1*002-Fc (assay: SPR (BIACORE T-100), kinetics).
B1 was tested, and the Kd was 124 nM, the koff was 0.00481 s⁻¹ and the kon was 38900 M⁻¹ s⁻¹. B2 gave a Kd of 93.5 nM, a koff of 0.0171 s⁻¹ and a kon of 183000 M⁻¹ s⁻¹. B3 gave a Kd of 108 nM, a koff of 0.0112 s⁻¹ and a kon of 103000 M⁻¹ s⁻¹. Work on B4 yielded a Kd of 316 nM, a koff of 0.0159 s⁻¹ and a kon of 50500 M⁻¹ s⁻¹. For B5, the Kd was 27.7 nM, the koff was 0.00232 s⁻¹ and the kon was 84000 M⁻¹ s⁻¹. Binder B6 has a Kd of 197 nM, a koff of 0.00987 s⁻¹ and a kon of 50000 M⁻¹ s⁻¹.

Each binder was assayed against T1, soluble KIR3DL1*002-Fc (assay: BLI (ForteBio QK), hIgG1).
For B1, the Kd was 16.3 nM. For B2, the Kd was 8.5 nM. Work on B3 yielded a Kd of 8.6 nM. Work on B4 yielded a Kd of 11.6 nM. Binder B5 has a Kd of 21.7 nM. With B6 the Kd was 10.9 nM.

The binders below were run against T4, soluble KIR3DL1*007/015-Fc (human, UniProt P43629 22-338) (assay: BLI (ForteBio QK), hIgG1).
T4 construct: also called KIR3DL1 allele 007/015; CD158e allele 007/015; not shown: Fc domain
B1 gave a Kd of 16.1 nM. B2 gave a Kd of 8.4 nM. Work on B3 yielded a Kd of 10.1 nM. With B4 the Kd was 11.6 nM. Binder B5 has a Kd of 4.1 nM. Binder B6 has a Kd of 11.4 nM.

The binders below were run against T5, soluble KIR3DL1*020-Fc (human, UniProt P43629 22-339) (assay: BLI (ForteBio QK), hIgG1).
T5 construct: also called KIR3DL1 allele 020; CD158e allele 020; not shown: Fc domain
T5 sequence (P43629 other isoform, or with tags, fused parts or gaps): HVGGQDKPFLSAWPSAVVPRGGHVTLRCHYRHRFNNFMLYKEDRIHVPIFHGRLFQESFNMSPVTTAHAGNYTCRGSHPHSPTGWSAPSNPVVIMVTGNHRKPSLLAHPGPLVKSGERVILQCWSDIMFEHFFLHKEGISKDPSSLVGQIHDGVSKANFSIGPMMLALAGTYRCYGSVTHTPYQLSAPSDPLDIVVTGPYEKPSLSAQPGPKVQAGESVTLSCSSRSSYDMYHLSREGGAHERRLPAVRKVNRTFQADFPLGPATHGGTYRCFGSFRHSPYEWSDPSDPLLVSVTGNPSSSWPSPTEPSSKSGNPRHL
Work on B1 yielded a Kd of 15.7 nM. B2 gave a Kd of 10.1 nM. For B3, the Kd was 11.2 nM. Binder B4 has a Kd of 11.4 nM. For B5, the Kd was 19.4 nM. B6 showed a Kd of 10.5 nM.

What follows are binders tested against T2, soluble KIR3DL1*033-Fc (assay: BLI (ForteBio QK), hIgG1).
With B1 the Kd was 14.4 nM. Work on B2 yielded a Kd of 10.3 nM. Binder B3 has a Kd of 11 nM. In the case of B4, the Kd is reported as 15.4 nM. Work on B5 yielded a Kd of 22.7 nM. With B6 the Kd was 13.1 nM.

These binders were tested against T3, soluble KIR3DL1*001-Fc (assay: BLI (ForteBio QK), hIgG1).
B1 was tested, and the Kd was 21.2 nM. Binder B3 has a Kd of 13.3 nM. Binder B4 has a Kd of 15.8 nM. B5 gave a Kd of 15.1 nM. In the case of B6, the Kd is reported as 13.9 nM.

Each binder was assayed against T3, soluble KIR3DL1*001-Fc (assay: BLI (ForteBio QK), hIgG1; ForteBio, hIgG1, allele 001 (Table 2)).
B2 showed a Kd of 12.9 nM.

The binders below were run against T1, soluble KIR3DL1*002-Fc (assay: SPR (BIACORE T-100), kinetics; Biacore T-100, allele 002).
In the case of B2, the Kd is reported as 93.5 nM.

Each binder was assayed against T3, soluble KIR3DL1*001-Fc (assay: BLI (Forte-Bio), partial fit, IgG).
With B1 the Kd was 21.2 nM, the koff was 0.00302 s⁻¹ and the kon was 143000 M⁻¹ s⁻¹. B2 gave a koff of 0.00221 s⁻¹ and a kon of 172000 M⁻¹ s⁻¹. Work on B3 yielded a Kd of 13.3 nM, a koff of 0.00161 s⁻¹ and a kon of 122000 M⁻¹ s⁻¹. B4 showed a Kd of 15.8 nM, a koff of 0.00212 s⁻¹ and a kon of 134000 M⁻¹ s⁻¹. With B5 the Kd was 15.1 nM, the koff was 0.00193 s⁻¹ and the kon was 127000 M⁻¹ s⁻¹. For B6, the Kd was 13.9 nM, the koff was 0.00222 s⁻¹ and the kon was 160000 M⁻¹ s⁻¹.
